Test results from patent publication US20100047245A1.
Each block holds one binder with its values, some of them ahead of it.

Key:
[1] = target: recombinant purified human IL-12 p70 (human) (UniProt P29459); test: cell-based or functional assay
[2] = target: recombinant purified human IL-12 p70 (human) (UniProt P29459); test: SPR (Biacore) per Example 1.1.B, recombinant human IL-12p70
[3] = target: recombinant purified human IL-12 p70 (human) (UniProt P29459); test: SPR (Biacore) per Example 1.1.B; antigen not restated, taken as human IL-12 p70
[4] = target: recombinant purified human IL-12 p70 (human) (UniProt P29459); test: competition ELISA on plate-coated human IL-12; competes 0.8 µg/ml biotinylated 8E1; Expt. 3
[5] = target: recombinant purified human IL-12 p70 (human) (UniProt P29459); test: competition ELISA on plate-coated human IL-12; competes 0.8 µg/ml biotinylated 8E1; Average
[6] = target: recombinant purified human IL-12 p70 (human) (UniProt P29459); test: competition ELISA on plate-coated human IL-12; competes 0.8 µg/ml biotinylated 8E1; Expt. 1
[7] = target: recombinant purified human IL-12 p70 (human) (UniProt P29459); test: competition ELISA on plate-coated human IL-12; competes 0.8 µg/ml biotinylated 8E1; Expt. 2
[8] = target: recombinant purified human IL-12 p70 (human) (UniProt P29459); test: SPR (BIAcore) per Example 1.1.B; antigen not restated, taken as human IL-12 p70
[9] = target: recombinant purified human IL-12 p70 (human) (UniProt P29459); test: SPR (Biacore 3000), mAb captured via goat anti-mouse IgG Fc, human IL-12 p70 in solution
[10] = target: recombinant purified human IL-12 p70 (human) (UniProt P29459); test: SPR (BIAcore) per Example 1.1.B, recombinant human IL-12p70

Sequence of recombinant purified human IL-12 p70 (human) (chain, as listed by the source, form in doubt, chain 1 of 2): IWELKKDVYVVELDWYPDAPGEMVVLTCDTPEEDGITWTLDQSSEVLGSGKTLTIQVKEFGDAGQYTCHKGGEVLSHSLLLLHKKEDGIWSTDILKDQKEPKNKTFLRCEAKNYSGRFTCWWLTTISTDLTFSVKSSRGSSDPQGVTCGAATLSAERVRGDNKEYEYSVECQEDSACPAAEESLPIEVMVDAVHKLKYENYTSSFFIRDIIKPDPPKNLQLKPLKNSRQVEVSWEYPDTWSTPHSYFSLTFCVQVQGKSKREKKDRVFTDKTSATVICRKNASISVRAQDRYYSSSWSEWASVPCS
Sequence of recombinant purified human IL-12 p70 (human) (P29459 23-219, form in doubt, chain 2 of 2): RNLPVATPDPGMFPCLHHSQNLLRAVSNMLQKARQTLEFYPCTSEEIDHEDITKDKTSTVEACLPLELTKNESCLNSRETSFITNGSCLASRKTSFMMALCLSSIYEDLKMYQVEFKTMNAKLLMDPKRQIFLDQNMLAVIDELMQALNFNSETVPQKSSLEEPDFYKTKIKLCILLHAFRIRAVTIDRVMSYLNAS

- Av. IC50 (nM) Hu IL-12; PHA blast IFN-gamma induction assay [1]: 2.8 nM
- Kd [2]: 1.7 nM
- koff [2]: 0.00087 s⁻¹
- kon [2]: 520000 M⁻¹ s⁻¹
B1: 8E1.1 (antibody, human IgG1, kappa, L234A L235A, V domains shown)
VH: EVQLVESGGGLVQPGGSLRLSCAASGFTFSDYGMVWVRQAPGKGLEWVGSISSGSSNIYYADTVKGRFTISRDDSKNSLYLQMNSLKTEDTAVYYCARNPYWGQGTTVTVSS
VL: DIQMTQSPSSLSASVGDRVTITCKASQNVGTNVAWYQQKPEKAPKSLIYSASHRYSGVPSRFSGSGSGTDFTLTISSLQPEDFATYYCQQYNSYPLTFGGGTKVEIKR

- Av. IC50(nM) huIL-12; PHA blast IFN-gamma induction assay [1]: 8 nM
- Kd [3]: 0.75 nM
- koff [3]: 0.00124 s⁻¹
- kon [3]: 1.6e+06 M⁻¹ s⁻¹
- IC50 [4]: 13.4 µg/mL
B2: 8E1.5 (antibody, IgG1, V domains shown)
VH: EVQLVESGGGLVQPGGSLRLSCAASGFTFSDYGMVWVRQAPGKGLEWVASISSGSSNIYYADTVKGRFTISRDNAKNTLYLQMNSLRAEDTAVYYCARNPYWGQGTLVTVSS
VL: DIQMTQSPSSLSASVGDRVTITCKASQNVGTNVAWYQQKPGKAPKGLIYSASHRYSGVPDRFSGSGSGTDFTLTISSLQPEDFATYYCQQYNSYPLTFGGGTKVEIKR

- Kd [3]: 0.046 nM
- koff [3]: 8e-05 s⁻¹
- kon [3]: 1.7e+06 M⁻¹ s⁻¹
- IC50 [5]: 2.1 µg/mL
- IC50 [6]: 2.25 µg/mL
- IC50 [7]: 2.43 µg/mL
- IC50 [4]: 1.61 µg/mL
B3: 8E1.6 (antibody, V domains shown)
VH: EVQLVESGGGLVQPGGSLRLSCAASGFTFSDYGMVWVRQAPGKGLEWVASISSGSSNIYYADTVKGRFTISRDDAKNTLYLQMNSLRAEDTAVYYCARNPYWGQGTLVTVSS
VL: DIQMTQSPSSLSASVGDRVTITCKASQNVGTNVAWYQQKPGKAPKGLIYSASHRYSGVPSRFSGSGSGTDFTLTISSLQPEDFATYYCQQYNSYPLTFGGGTKVEIKR

- Av. IC50(nM) huIL-12; PHA blast IFN-gamma induction assay [1]: 12 nM
- Kd [3]: 1.3 nM
- koff [3]: 0.001 s⁻¹
- kon [3]: 800000 M⁻¹ s⁻¹
- IC50 [4]: 8.33 µg/mL
B4: 8E1.4 (antibody, IgG1, V domains shown)
VH: EVQLVESGGGLVQPGGSLRLSCAASGFTFSDYGMVWVRQAPGKGLEWVASISSGSSNIYYADTVKGRFTISRDNAKNTLYLQMNSLRAEDTAVYYCARNPYWGQGTLVTVSS
VL: DIQMTQSPSSLSASVGDRVTITCKASQNVGTNVAWYQQKPGKAPKGLIYSASHRYSGVPSRFSGSGSGTDFTLTISSLQPEDFATYYCQQYNSYPLTFGGGTKVEIKR

- Av. IC50(nM) huIL-12; PHA blast IFN-gamma induction assay [1]: 2.1 nM
- Kd [8]: 1 nM
- koff [8]: 0.00011 s⁻¹
- kon [8]: 110000 M⁻¹ s⁻¹
B5: 1A6.4 (antibody, human IgG1, V domains shown)
VH: QVTLKESGPGILKPSQTLSLTCSFSGFSLSTSGMGVSWIRQPSGKGLEWLAHIWWDGDNYYNPSLKSQLTISKDTSRNQVFLRIATVDTADTATYYCARRTRVNYAMDYWGQGTSVTVSS
VL: EIVMTQSPATLSVSPGERATLSCKASQSVSNDVAWYQQKPGQAPRLLIYYASNRYTGIPARFSGSGSGTEFTLTISSLQSEDFAVYYCQQDYNSPWTFGGGTKVEIKR

- Average IC50 (nM) Human IL-12; PHA blast IFN-gamma induction assay [1]: 0.19 nM
- Kd [9]: 0.074 nM
- koff [9]: 5.1e-05 s⁻¹
- kon [9]: 690000 M⁻¹ s⁻¹
- IC50 [5]: 2.56 µg/mL
- IC50 [6]: 2.63 µg/mL
- IC50 [7]: 2.78 µg/mL
- IC50 [4]: 2.28 µg/mL
B6: 8E1 (antibody, V domains shown)
VH: EVKLVESGGGLVQPGGSRKLSCAASGFTFSDYGMVWVRQAPGKGLEWVASISSGSSNIYYADTVKGRFTISRDDPNNTLFLQMRSLRSEDTAMYYCARNPYWGQGTTLTVSS
VL: DIVMTQSQKFMSTSVGDRVSVTCKASQNVGTNVAWYQQKPGQSPKGLIYSASHRYSGVPDRFAGSGSGTDFTLTISNVQSEDLAEYFCQQYNSYPLTFGGGTKLELKR

- Av. IC50(nM) huIL-12; PHA blast IFN-gamma induction assay [1]: 10 nM
- Kd [10]: 0.76 nM
- koff [10]: 0.001 s⁻¹
- kon [10]: 1.3e+06 M⁻¹ s⁻¹
B7: 8E1.3 (antibody, human IgG1, kappa, L234A L235A, V domains shown)
VH: EVKLVESGGGLVQPGGSLRLSCAASGFTFSDYGMVWVRQAPGKGLEWVASISSGSSNIYYADTVKGRFTISRDDSKNTLYLQMNSLKTEDTAVYYCARNPYWGQGTTVTVSS
VL: DIVMTQSPSSLSASVGDRVTITCKASQNVGTNVAWYQQKPEKAPKSLIYSASHRYSGVPSRFSGSGSGTDFTLTISSLQPEDFATYYCQQYNSYPLTFGGGTKVEIKR

- Av. IC50(nM) huIL-12; PHA blast IFN-gamma induction assay [1]: 0.15 nM
- Kd [10]: < 0.01 nM
- koff [10]: < 1e-05 s⁻¹
- kon [10]: 350000 M⁻¹ s⁻¹
B8: 1A6.9 (antibody, human IgG1, kappa, L234A L235A, V domains shown)
VH: EVTLRESGPALVKPTQTLTLTCTFSGFSLSTSGMGVSWIRQPPGKALEWLAHIWWDGDNYYNPSLKSRLTISKDTSKNQVVLTMTNMDPVDTATYYCARRTRVNYAMDYWGQGTTVTVSS
VL: SVVMTQSPDSLAVSLGERATINCKASQSVSNDVAWFQQKPGQPPKLLIYYASNRYTGVPDRFSGSGYGTDFTLTISSLQAEDVAVYYCQQDYNSPWTFGGGTKVEIKR
